Results reported in article PMC9750158.

Tests used:
GST-Rac1^QP = GST-Rac1^QP (UniProt P63000); test: pull-down
GST-Arf1 (Arf1^∆N17) = GST-Arf1 (Arf1^∆N17) (UniProt P84077); test: pull-down
GST-Arf1 (Arf1^∆N17), sequence (P84077 18-181): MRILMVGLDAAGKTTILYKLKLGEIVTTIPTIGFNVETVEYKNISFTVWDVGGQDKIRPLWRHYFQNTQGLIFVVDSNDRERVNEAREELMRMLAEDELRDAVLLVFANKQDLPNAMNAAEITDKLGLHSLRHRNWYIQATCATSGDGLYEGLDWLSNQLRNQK

WRC with Sra1^Y967A (D site disrupted) (from UniProt Q7L576;Q9Y2A7;Q92558;Q9NYB9;Q8WUW1) (complex)
Kd (GST-Rac1^QP): 2 µM

∆WRC230^D-Rac1 (Rac1 tethered to the C terminus of Sra1) (from UniProt Q7L576;Q9Y2A7;Q92558;Q9NYB9;Q8WUW1) (complex)
Kd (GST-Arf1 (Arf1^∆N17)): 5.33 µM
